Here are results for four molecules from US6642040B2, “Human cGMP-stimulated cyclic nucleotide phosphodiesterase” (The Board of Regents of the University of Washington, priority 1991, dated 2003).

Data set [1] deals with cAMP and cGMP hydrolysis. The experiment in a line: CaM-dependent PDE activity of homogenates of COS-7 cells transfected with 63 kDa CaM-PDE cDNA. The conditions noted are these: COS-7 cell homogenates. The class given is biochemical, bovine. On the procedure: COS cells were scraped from the plates and homogenized in a buffer containing 40 mM Tris-HCl (pH=7.5), 5 mM EDTA, 15 mM benzamidine, 15 mM beta-mercaptoethanol, 1 μg per ml pepstatin A and 1 μg per ml peupeptin using a Dounce homogenizer (1 ml per 100 mm plate). Homogenates were assayed for PDE activity according to the procedures of Hanson et al., Proc. Nat'l. Acad. Sci. U.S.A., 79:2788-2792 (1982), using [^3H]cGMP as the substrate. Reactions were carried out at 300 for 10 minutes in a buffer containing 20 mM Tris-HCl (pH=7.5), 20 mM imidazole (pH=7.5), 3 mM MgCl2, 15 mM Mg acetate, 0.2 mg per ml BSA and 1 μM ^3H-cAMP with either 2 mM EGTA or 0.2 mM CaCl2 and 4 μg per ml CaM. Assays were stopped by incubating the tubes in a 900 water bath for 1 minute. After cooling, 10 μl of 2.5 mg per ml snake venom was added to each assay and incubated at 370 for 5 minutes. […] Samples were counted for 1 minute using a Packard Model 1600TR scintillation counter. Specific cyclic nucleotide hydrolytic activity was expressed as picomoles cAMP or cGMP hydrolyzed per minute per mg protein. […]
COS-7 cells were transfected with the p12.3.a/CDM8 construct or mock transfected with the CDM8 vector alone using the DEAE-dextran method as described in Example 1. […] CaM-dependent and independent activities were determined as in Example 1.

Data set [2] concerns cGS-PDE activity. The experiment in a line: cGS-PDE activity of membrane and supernatant fractions of transfected COS-7 cells. The format is biochemical, bovine. An excerpt:
Transient expression of the CGS-PDE cDNA in COS-7 cells was accomplished as in Example I. A 4.2 kb fragment of p3CGS-5 was isolated using HindIII and NotI and was inserted into plasmid pCDM8, which had been digested with the same enzymes. The character of products produced in COS-7 cells transformed with the p3CGS-5/pCDM8 construct is discussed in Example V, infra.
For transient expression in COS-7 cells, a 3.8 kb fragment of pBBCGSPDE-7 was isolated using HindIII and NotI and inserted into plasmid pCDM8 which had been cut with HindIII and NotI restriction endonucleases. The recombinant pBBCGSPDE-7/CDM8 construct was used to transiently transfect COS-7 cells. The properties of the pBBCGSPDE-7/CDM8 construct and the p3CGS-5/CDM8 construct prepared in Example IV products were subsequently compared. Membrane and supernatant fractions were prepared from extracts of transfected COS-7 cells and assayed for cGS-PDE activity. […] However, a 10-fold greater percentage of total cGS-PDE activity was detected in membranes from COS-7 cell extracts transfected with the pBBCGSPDE-7/CDM8 construct than in membranes prepared from p3CGS-5/CDM8-transfected COS-7 cells.

Data set [3] concerns the target calmodulin (Homo sapiens, UniProt P0DP23). The conditions noted are these: cited from earlier work.
Data set [4] relates to cAMP and cGMP hydrolysis. The experiment in a line: PDE activity of homogenates of COS-7 cells transfected with 61 kDa CaM-PDE cDNA. The conditions noted are these: COS-7 cell extracts. The format is biochemical, bovine.

B1: p12.3.a: expression product of bovine brain 63 kDa CaM-PDE cDNA clone (SEQ ID NO: 27) (protein)
chain: MELSPRSPPEMLESDCPSPLELKSAPSKKMWIKLRSLLRYMVKQLENGEVNIEELKKNLEYTASLLEAVYIDETRQILDTEDELQELRSDAVPSEVRDWLASTFTQQTRAKGPSEEKPKFRSIVHAVQAGIFVERMFRRTYTSVGPTYSTAVLNCLKNVDLWCFDVFSLNRAADDHALRTIVFELLTRHNLISRFKIPTVFLMTFLDALETGYGKYKNPYHNQIHAADVTQTVHCFLLRTGMVHCLSEIEVLAIIFAAAIHDYEHTGTTNSFHIQTKSECAILYNDRSVLENHHISSVFRMMQDDEMNIFINLTKDEFVELRALVIEMVLATDMSCHFQQVKSMKTALQQLERIDKSKALSLLLHAADISHPTKQWSVHSRWTKALMEEFFRQGDKEAELGLPFSPLCDRTSTLVAQSQIGFIDFIVEPTFSVLTDVAEKSVQPTGDDDSKSKNQPSFQWRQPSLDVEVGDPNPDVVSFRSTWTKYIQENKQKWKERAASGITNQMSIDELSPCEEEAPASPAEDEHNQNGNLD
On to B1, for which, in data set [1], the “increase in CaM-stimulated cAMP phosphodiesterase activity over basal levels” value came to 15 fold and the “increase in CaM-stimulated cGMP phosphodiesterase activity over basal levels” value is recorded as 12 fold.

B2: pBBCGSPDE-7/CDM8: expression product of bovine brain cGS-PDE cDNA (SEQ ID NO: 43) (protein)
chain: MGQACGHSILCRSQQYPAARPAEPRGQQVFLKPDEPPPPPQPCADSLQDALLSLGSVIDVAGLQQAVKEALSAVLPKVETVYTYLLDGESRLVCEEPPHELPQEGKVREAVISRKRLGCNGLGPSDLPGKPLARLVAPLAPDTQVLVIPLVDKEAGAVAAVILVHCGQLSDNEEWSLQAVEKHTLVALKRVQALQQRESSVAPEATQNPPEEAAGDQKGGVAYTDQDRKILQLCGELYDLDASSLQLKVLQYLQQETQASRCCLLLVSEDNLQLSCKVIGDKVLEEEISFPLTTGRLGQVVEDKKSIQLKDLTSEDMQQLQSMLGCEVQAMLCVPVISRATDQVVALACAFNKLGGDLFTDQDEHVIQHCFHYTSTVLTSTLAFQKEQKLKCECQALLQVAKNLFTHLDDVSVLLQEIITEARNLSNAEICSVFLLDQNELVAKVFDGGVVEDESYEIRIPADQGIAGHVATTGQILNIPDAYAHPLFYRGVDDSTGFRTRNILCFPIKNENQEVIGVAELVNKINGPWFSKFDEDLATAFSIYCGISIAHSLLYKKVNEAQYRSHLANEMMMYHMKVSDDEYTKLLHDGIQPVAAIDSNFASFTYTPRSLPEDDTSMAILSMLQDMNFINNYKIDCPTLARFCLMVKKGYRDPPYHNWMHAFSVSHFCYLLYKNLELTNYLEDMEIFALFISCMCHDLDHRGTNNSFQVASKSVLAALYSSEGSVMERHHFAQAIAILNTHGCNIFDHFSRKDYQRMLDLMRDIILATDLAHHLRIFKDLQKMAEVGYDRTNKQHHSLLLCLLMTSCDLSDQTKGWKTTRKIAELIYKEFFSQGDLEKAMGNRPMEMMDREKAYIPELQISFMEHIAMPIYKLLQDLFPKAAELYERVASNREHWTKVSHKFTIRGLPSNNSLDFLDEEYEVPDLDGARAPINGCCSLDAE
Regarding B2, the “percentage of total cGS-PDE activity detected in membranes, relative to p3CGS-5/CDM8-transfected cells” value in data set [2] (membranes from COS-7 cell extracts) turned out to be 10 fold. Besides, the “cGS-PDE activity in COS-7 cell extracts” value in data set [2] (most of the activity in supernatant fractions) was “produced cGS-PDE activities”.

B3: 59 kDa isozyme: 59 kDa CaM-PDE isozyme isolated from bovine heart (protein, UniProt P14100 1-530, looked up)
Dual specificity …: MGSTATETEELENTTFKYLIGEQTEKMWQRLKGILRCLVKQLEKGDVNVIDLKKNIEYAASVLEAVYIDETRRLLDTDDELSDIQSDSVPSEVRDWLASTFTRKMGMMKKKSEEKPRFRSIVHVVQAGIFVERMYRKSYHMVGLAYPEAVIVTLKDVDKWSFDVFALNEASGEHSLKFMIYELFTRYDLINRFKIPVSCLIAFAEALEVGYSKYKNPYHNLIHAADVTQTVHYIMLHTGIMHWLTELEILAMVFAAAIHDYEHTGTTNNFHIQTRSDVAILYNDRSVLENHHVSAAYRLMQEEEMNVLINLSKDDWRDLRNLVIEMVLSTDMSGHFQQIKNIRNSLQQPEGLDKAKTMSLILHAADISHPAKSWKLHHRWTMALMEEFFLQGDKEAELGLPFSPLCDRKSTMVAQSQIGFIDFIVEPTFSLLTDSTEKIIIPLIEEDSKTKTPSYGASRRSNMKGTTNDGTYSPDYSLASVDLKSFKNSLVDIIQQNKERWKELAAQGEPDPHKNSDLVNAEEKHAETHS
With B3, the “affinity for calmodulin relative to the 61 kDa brain isozyme” value in data set [3] is recorded as 10-20 fold.

B4: pCAM-40: expression product of plasmid pCAM-40, full length bovine brain 61 kDa CaM-PDE (SEQ ID NO: 6) (protein)
chain: B3 Dual specificity …
For B4, the “cAMP and cGMP hydrolytic activities compared to mock transfected cells” value in data set [4] (in the presence of EGTA) is recorded as “significantly greater”. For the same molecule, the “effect of calcium and CaM on cAMP and cGMP hydrolysis” value in data set [4] (in the presence of calcium and CaM) is recorded as “stimulation”.
